According to patent US20210388087A1 (Chugai, published 2021):
Changes are numbered by the printed parent chain. Numbers in names are those of the source.

T1: Human CD3eg linker (human)
T1 construct: single-chain construct; also called recombinant human CD3
T1 chain: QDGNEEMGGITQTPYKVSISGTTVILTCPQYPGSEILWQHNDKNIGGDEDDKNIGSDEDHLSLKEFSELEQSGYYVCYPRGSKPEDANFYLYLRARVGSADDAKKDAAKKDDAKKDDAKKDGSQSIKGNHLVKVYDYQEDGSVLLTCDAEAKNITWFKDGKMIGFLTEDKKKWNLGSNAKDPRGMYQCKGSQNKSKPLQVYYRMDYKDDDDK

B1: dBBDu183H P61V/dBBDu072L (antibody, name in Kabat numbering, V domains shown)
VH: QVQLVESGGGLVQPGRSLRLSCAASGFTFSNAWMHWVRQAPGKGLEWVAQIKDKGNAYAAYYAVSVKGRFTISRDDSKNSIYLQMNSLKTEDTAVYYCHYVHYASASTVLPAFGVDAWGQGTTVTVSS
VL: DIVMTQSPLSLPVTPGEPASISCQASQELVHMNRNTYLHWYQQKPGQAPRLLIYKVSNRFPGVPDRFSGSGSGTDFTLKISRVEAEDVGVYYCAQGTSVPFTFGQGTKLEIK
B2: dBBDu183H A98S/dBBDu072L (antibody, name in Kabat numbering, V domains shown)
VH: B1 VH with V64P, A104S
VL: B1 VL
B3: dBBDu183H A98Q/dBBDu072L (antibody, name in Kabat numbering, V domains shown)
VH: B1 VH with V64P, A104Q
VL: B1 VL
B4: dBBDu183H A98W/dBBDu072L (antibody, name in Kabat numbering, V domains shown)
VH: B1 VH with V64P, A104W
VL: B1 VL
B5: dBBDu183H A98V/dBBDu072L (antibody, name in Kabat numbering, V domains shown)
VH: B1 VH with V64P, A104V
VL: B1 VL
B6: dBBDu183H A98D/dBBDu072L (antibody, name in Kabat numbering, V domains shown)
VH: B1 VH with V64P, A104D
VL: B1 VL
B7: dBBDu183H A100F/dBBDu072L (antibody, name in Kabat numbering, V domains shown)
VH: B1 VH with V64P, A106F
VL: B1 VL
B8: dBBDu183H A100G/dBBDu072L (antibody, name in Kabat numbering, V domains shown)
VH: B1 VH with V64P, A106G
VL: B1 VL
B9: dBBDu183H A100E/dBBDu072L (antibody, name in Kabat numbering, V domains shown)
VH: B1 VH with V64P, A106E
VL: B1 VL
B10: dBBDu183H A98E/dBBDu072L (antibody, name in Kabat numbering, V domains shown)
VH: B1 VH with V64P, A104E
VL: B1 VL
B11: dBBDu183H A98N/dBBDu072L (antibody, name in Kabat numbering, V domains shown)
VH: B1 VH with V64P, A104N
VL: B1 VL
B12: dBBDu183H A98H/dBBDu072L (antibody, name in Kabat numbering, V domains shown)
VH: B1 VH with V64P, A104H
VL: B1 VL
B13: dBBDu183H A98F/dBBDu072L (antibody, name in Kabat numbering, V domains shown)
VH: B1 VH with V64P, A104F
VL: B1 VL
B14: dBBDu183H A98T/dBBDu072L (antibody, name in Kabat numbering, V domains shown)
VH: B1 VH with V64P, A104T
VL: B1 VL
B15: dBBDu183H A98G/dBBDu072L (antibody, name in Kabat numbering, V domains shown)
VH: B1 VH with V64P, A104G
VL: B1 VL
B16: dBBDu183H A98Y/dBBDu072L (antibody, name in Kabat numbering, V domains shown)
VH: B1 VH with V64P, A104Y
VL: B1 VL
B17: dBBDu183H A98K/dBBDu072L (antibody, name in Kabat numbering, V domains shown)
VH: B1 VH with V64P, A104K
VL: B1 VL
B18: dBBDu183H A100D/dBBDu072L (antibody, name in Kabat numbering, V domains shown)
VH: B1 VH with V64P, A106D
VL: B1 VL
B19: dBBDu183H A98R/dBBDu072L (antibody, name in Kabat numbering, V domains shown)
VH: B1 VH with V64P, A104R
VL: B1 VL
B20: CE115HA000/GLS3000 V94K (antibody, IgG1, name in Kabat numbering, V domains shown)
VH: QVQLVESGGGVVQPGRSLRLSCAASGFTFSNAWMHWVRQAPGKGLEWVAQIKAKSNNYATYYAESVKGRFTISRDDSKNSLYLQMNSLKTEDTAVYYCRYVHYGAYYGVDAWGQGTTVTVSS
VL: B1 VL with Q24R, A25S, E28S, M32S, P61S, A94G, S98Q, V99K, F101Y
notes: one-arm IgG1
B21: CE115HA000/GLS3000 Y96L (antibody, IgG1, name in Kabat numbering, V domains shown)
VH: B20 VH
VL: B1 VL with Q24R, A25S, E28S, M32S, P61S, A94G, S98Q, F101L
notes: one-arm IgG1
B22: CE115HA000/GLS3000 V94S (antibody, IgG1, name in Kabat numbering, V domains shown)
VH: B20 VH
VL: B1 VL with Q24R, A25S, E28S, M32S, P61S, A94G, S98Q, V99S, F101Y
notes: one-arm IgG1
B23: CE115HA000/GLS3000 Y32D (antibody, IgG1, name in Kabat numbering, V domains shown)
VH: B20 VH
VL: B1 VL with Q24R, A25S, E28S, M32S, Y37D, P61S, A94G, S98Q, F101Y
notes: one-arm IgG1
B24: CE115HA000/GLS3000 Y96E (antibody, IgG1, name in Kabat numbering, V domains shown)
VH: B20 VH
VL: B1 VL with Q24R, A25S, E28S, M32S, P61S, A94G, S98Q, F101E
notes: one-arm IgG1
B25: CE115HA000/GLS3000 V94M (antibody, IgG1, name in Kabat numbering, V domains shown)
VH: B20 VH
VL: B1 VL with Q24R, A25S, E28S, M32S, P61S, A94G, S98Q, V99M, F101Y
notes: one-arm IgG1
B26: CE115HA000/GLS3000 Y96H (antibody, IgG1, name in Kabat numbering, V domains shown)
VH: B20 VH
VL: B1 VL with Q24R, A25S, E28S, M32S, P61S, A94G, S98Q, F101H
notes: one-arm IgG1
B27: CE115HA000/GLS3000 V94R (antibody, IgG1, name in Kabat numbering, V domains shown)
VH: B20 VH
VL: B1 VL with Q24R, A25S, E28S, M32S, P61S, A94G, S98Q, V99R, F101Y
notes: one-arm IgG1
B28: CE115HA000/GLS3000 V94Y (antibody, IgG1, name in Kabat numbering, V domains shown)
VH: B20 VH
VL: B1 VL with Q24R, A25S, E28S, M32S, P61S, A94G, S98Q, V99Y, F101Y
notes: one-arm IgG1
B29: CE115HA000/GLS3000 V94L (antibody, IgG1, name in Kabat numbering, V domains shown)
VH: B20 VH
VL: B1 VL with Q24R, A25S, E28S, M32S, P61S, A94G, S98Q, V99L, F101Y
notes: one-arm IgG1
B30: CE115HA000/GLS3000 V94E (antibody, IgG1, name in Kabat numbering, V domains shown)
VH: B20 VH
VL: B1 VL with Q24R, A25S, E28S, M32S, P61S, A94G, S98Q, V99E, F101Y
notes: one-arm IgG1
B31: CE115HA000/GLS3000 V94G (antibody, IgG1, name in Kabat numbering, V domains shown)
VH: B20 VH
VL: B1 VL with Q24R, A25S, E28S, M32S, P61S, A94G, S98Q, V99G, F101Y
notes: one-arm IgG1
B32: CE115HA000/GLS3000 V94H (antibody, IgG1, name in Kabat numbering, V domains shown)
VH: B20 VH
VL: B1 VL with Q24R, A25S, E28S, M32S, P61S, A94G, S98Q, V99H, F101Y
notes: one-arm IgG1
B33: CE115HA000/GLS3000 V94I (antibody, IgG1, name in Kabat numbering, V domains shown)
VH: B20 VH
VL: B1 VL with Q24R, A25S, E28S, M32S, P61S, A94G, S98Q, V99I, F101Y
notes: one-arm IgG1
B34: CE115HA000/GLS3000 V94F (antibody, IgG1, name in Kabat numbering, V domains shown)
VH: B20 VH
VL: B1 VL with Q24R, A25S, E28S, M32S, P61S, A94G, S98Q, V99F, F101Y
notes: one-arm IgG1
B35: CE115HA000/GLS3000 V94W (antibody, IgG1, name in Kabat numbering, V domains shown)
VH: B20 VH
VL: B1 VL with Q24R, A25S, E28S, M32S, P61S, A94G, S98Q, V99W, F101Y
notes: one-arm IgG1
B36: CE115HA000/GLS3000 Y32P (antibody, IgG1, name in Kabat numbering, V domains shown)
VH: B20 VH
VL: B1 VL with Q24R, A25S, E28S, M32S, Y37P, P61S, A94G, S98Q, F101Y
notes: one-arm IgG1
B37: CE115HA000/GLS3000 V94P (antibody, IgG1, name in Kabat numbering, V domains shown)
VH: B20 VH
VL: B1 VL with Q24R, A25S, E28S, M32S, P61S, A94G, S98Q, V99P, F101Y
notes: one-arm IgG1
B38: CE115HA000/GLS3000 V94Q (antibody, IgG1, name in Kabat numbering, V domains shown)
VH: B20 VH
VL: B1 VL with Q24R, A25S, E28S, M32S, P61S, A94G, S98Q, V99Q, F101Y
notes: one-arm IgG1
B39: CE115HA000/GLS3000 Y32F (antibody, IgG1, name in Kabat numbering, V domains shown)
VH: B20 VH
VL: B1 VL with Q24R, A25S, E28S, M32S, Y37F, P61S, A94G, S98Q, F101Y
notes: one-arm IgG1
B40: CE115HA000/GLS3000 V94N (antibody, IgG1, name in Kabat numbering, V domains shown)
VH: B20 VH
VL: B1 VL with Q24R, A25S, E28S, M32S, P61S, A94G, S98Q, V99N, F101Y
notes: one-arm IgG1
B41: CE115HA000/GLS3000 Y96D (antibody, IgG1, name in Kabat numbering, V domains shown)
VH: B20 VH
VL: B1 VL with Q24R, A25S, E28S, M32S, P61S, A94G, S98Q, F101D
notes: one-arm IgG1
B42: CE115HA000/GLS3000 V94T (antibody, IgG1, name in Kabat numbering, V domains shown)
VH: B20 VH
VL: B1 VL with Q24R, A25S, E28S, M32S, P61S, A94G, S98Q, V99T, F101Y
notes: one-arm IgG1
B43: CE115HA000/GLS3000 Y96F (antibody, IgG1, name in Kabat numbering, V domains shown)
VH: B20 VH
VL: B1 VL with Q24R, A25S, E28S, M32S, P61S, A94G, S98Q
notes: one-arm IgG1
B44: CE115HA000/GLS3000 Y32A (antibody, IgG1, name in Kabat numbering, V domains shown)
VH: B20 VH
VL: B1 VL with Q24R, A25S, E28S, M32S, Y37A, P61S, A94G, S98Q, F101Y
notes: one-arm IgG1

Target: T1, Human CD3eg linker
Test: SPR, vs unmutated H183/L072

| fold change of affinity [fold] | Binder |
| --- | --- |
| 1.8 | B1 |
| 1 | B2 |
| 0.7 | B3 |
| 7 | B4 |
| 4.7 | B5 |
| 0.4 | B6 |
| 1.4 | B7 |
| 1.4 | B8 |
| 0.5 | B9 |
| 0.3 | B10 |
| 1.5 | B11 |
| 5.9 | B12 |
| 12.1 | B13 |
| 2 | B14 |
| 1.4 | B15 |
| 25.1 | B16 |
| 4.6 | B17 |
| 0.5 | B18 |
| 2.7 | B19 |

Each binder was assayed against T2, CD3 epsilon homodimer protein (UniProt P07766 23-126) (assay: SPR, antibody over immobilised CD3e homodimer;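 further: SPR at 25 °C with CD3 epsilon homodimer amine-coupled to a CM4 sensor chip and antibody flowed over as analyte in HBS-EP+ running buffer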).
T2 construct: also called CD3 (CD3 epsilon)
T2 sequence (P07766 23-126): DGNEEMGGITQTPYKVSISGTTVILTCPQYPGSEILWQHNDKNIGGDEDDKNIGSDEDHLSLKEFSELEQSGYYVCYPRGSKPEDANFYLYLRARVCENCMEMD

| KD ratio to GLS3000 | Binder |
| --- | --- |
| 0.91 | B20 |
| 1.84 | B21 |
| 0.81 | B22 |
| 25.9 | B23 |
| 46.8 | B24 |
| 2.74 | B25 |
| 80.3 | B26 |
| 1.11 | B27 |
| 2.45 | B28 |
| 3.06 | B29 |
| 1.18 | B30 |
| 2.59 | B31 |
| 1.16 | B32 |
| 1.46 | B33 |
| 1.75 | B34 |
| 1.81 | B35 |
| 62 | B36 |
| 1.1 | B37 |
| 1.1 | B38 |
| 4.51 | B39 |
| 0.96 | B40 |
| 40.9 | B41 |
| 1.06 | B42 |
| 0.86 | B43 |
| 66.8 | B44 |
